# Reference: article PMC7173237
# Molecular target: West Nile virus (Kunjin subtype, strain MRM61C) core (C) protein, trypsin-cleaved fragment Val23-Arg98 (Kunjin virus (strain MRM61C))
# Assay: crystal structure
substance,measurement,value
"West Nile virus (Kunjin subtype, strain MRM61C) core (C) protein, trypsin-cleaved fragment Val23-Arg98 (domain or fragment)",stoichiometry N,4
